From PMC6277709, “Lipid-Modified Azurin of Neisseria gonorrhoeae Is Not Surface Exposed and Does Not Interact With the Nitrite Reductase AniA” (Frontiers in Microbiology, 2018)

Molecular target: the molecule itself
Assay: cross-linking; in vivo: intact living N. gonorrhoeae (WT or Δlaz, grown under standard aerobic conditions) in PBS with 0, 0.1, 0.25 or 0.4 mM DSP, 37°C, 5% CO2, 30 min; quenched with 50 mM Tris-HCl pH 8.0; SDS-PAGE without reducing agent at 4°C; immunoblot with anti-BamA, anti-AniA or anti-Laz antiserum

B1: Nitrite reductase AniA of Neisseria gonorrhoeae FA1090, endogenous in living gonococci (enzyme)
chain: CGGEQAAQAPAETPAASAEAASSAAQATAETPAGELPVIDAVTTHAPEVPPAIDRDYPAKVRVKMETVEKTMKMDDGVEYRYWTFDGDVPGRMIRVREGDTVEVEFSNNPSSTVPHNVDFHAATGQGGGAAATFTAPGRTSTFSFKALQPGLYIYHCAVAPVGMHIANGMYGLILVEPKEGLPKVDKEFYIVQGDFYTKGKKGAQGLQPFDMDKAVAEQPEYVVFNGHVGSIAGDNALKAKAGETVRMYVGNGGPNLVSSFHVIGEIFDKVYVEGGKLINENVQSTIVPAGGSAIVEFKVDIPGSYTLVDHSIFRAFNKGALGQLKVEGAENPEIMTQKLSDTAYAGSGAASAPAASAPAASAPAASASEKSVY
notes: source: endogenous, living N. gonorrhoeae FA1090 (WT and Δlaz) cells
stoichiometry N: 3
